Molecular target: T1, RANK-N, soluble form of the extracellular domain of human RANK (human, UniProt Q9Y6Q6 29-213, N-glycosylated (28 kDa band shifts to about 21 kDa with PNGase F); predicted sites Asn 105 and Asn 174, not verified)
T1 construct: Codon-optimised gene cloned into pPIC9K cut with XhoI and NotI; no tag is named; also called recombinant RANK-N
T1 sequence (looked up): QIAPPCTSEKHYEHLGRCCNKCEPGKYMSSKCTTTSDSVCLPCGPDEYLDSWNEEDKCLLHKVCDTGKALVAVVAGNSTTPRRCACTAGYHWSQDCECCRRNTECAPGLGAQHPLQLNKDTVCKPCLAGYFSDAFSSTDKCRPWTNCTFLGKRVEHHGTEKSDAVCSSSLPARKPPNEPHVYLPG
Assay: SPR; Biacore T100; RANKL amine-coupled to a CM5 chip; RANK-N (32.5 to 1000 nM) injected at 30 μl/min, 25 °C, contact 210 s, dissociation 400 s; running buffer 3 mM EDTA, 150 mM NaCl, 10 mM HEPES, 0.05% Surfactant P20; steady-state responses fit to the Hill equation
Settings: both partners purified

B1: RANKL (R&D Systems, 462-TEC-010/CF) (ligand, UniProt O35235 139-316, looked up)
chain: FSGAPAMMEGSWLDVAQRGKPEAQPFAHLTINAASIPSGSHKVTLSSWYHDRGWAKISNMTLSNGKLRVNQDGFYYLYANICFRHHETSGSVPTDYLQLMVYVVKTSIKIPSSHNLMKGGSTKNWSGNSEFHFYSINVGGFFKLRAGEEISIQVSNPSLLDPDQDATYFGAFKVQDID
notes: RANKL, recombinant protein bought from R&D Systems, catalogue 462-TEC-010/CF; As far as I recall, catalogue 462-TEC is R&D's recombinant mouse TRANCE/RANKL (soluble extracellular part, carrier-free); source: bought: R&D Systems (462-TEC-010/CF)
Kd: 2620 nM
